Results as given in paper PMC10371975, “Potential of Y. lipolytica epoxide hydrolase for efficient production of enantiopure (R)-1,2-octanediol” (AMB Express, 2023).

Substrate: CCCCCCC1CO1
Experiment: purified protein
Type: biochemical, Yarrowia lipolytica
Conditions: 50 mM Tris-sulphate pH 8.0, 30 °C, 0.1-0.7 mM EO, 1 µg enzyme

B1: Yleh (Yarrowia lipolytica CLIB122) (protein)
chain: MTDSLSLGYYQLFHKYAVLGDKRWHYLDIPPTSPSPALLGSGKTLMLCHGFPDSWYGWRKQIPILRNLGYRLLVPSQMGYTRSEAPLYPTPEPNEKGEYPELGLEDGTDALKDLYCYTGKFYAQCMDELLTQLGIPTVTIIGHDYGAYLGPKLYLYFPHRVEAIATSCWHYVPALKKFFAIPDFIKLAPSLSYQAYLIGDASKDFATREGSEPFLRQVFGGEGWGGSDSSVHMTEPEFQNYMTEFATGGRFLSYMVSTYKARRLTFEIEKQDFLDKGRTPESMQVDVPYLHVGAEQDMAFRPPMIKNLRKYVKPGRLDEVWIDASHWLMFEKADEFNHELVKWLDKIHGSQSKL
notes: recombinant full-length 354-residue protein (ORF 1065 bp), pET28a+ vector, E. coli BL21AI host, Ni-NTA plus size exclusion purification (His tag implied); distinct from bifunctional Ylehd of the same yeast
Km: 430 ± 17 µM | kcat: 3.3458 ± 0.2163 s⁻¹
